Kd data for 27 molecules are collected here from article PMC10786891, “Massively parallel profiling of RNA-targeting CRISPR-Cas13d”.

In general, Kd refers to the constant that tells how readily two partners part at equilibrium.

The chains are these.
T1: EsCas13d, nuclease-dead (Eubacterium siraeum, UniProt B0MS50, R295A;H300A;R849A;H854A)
T1 sequence: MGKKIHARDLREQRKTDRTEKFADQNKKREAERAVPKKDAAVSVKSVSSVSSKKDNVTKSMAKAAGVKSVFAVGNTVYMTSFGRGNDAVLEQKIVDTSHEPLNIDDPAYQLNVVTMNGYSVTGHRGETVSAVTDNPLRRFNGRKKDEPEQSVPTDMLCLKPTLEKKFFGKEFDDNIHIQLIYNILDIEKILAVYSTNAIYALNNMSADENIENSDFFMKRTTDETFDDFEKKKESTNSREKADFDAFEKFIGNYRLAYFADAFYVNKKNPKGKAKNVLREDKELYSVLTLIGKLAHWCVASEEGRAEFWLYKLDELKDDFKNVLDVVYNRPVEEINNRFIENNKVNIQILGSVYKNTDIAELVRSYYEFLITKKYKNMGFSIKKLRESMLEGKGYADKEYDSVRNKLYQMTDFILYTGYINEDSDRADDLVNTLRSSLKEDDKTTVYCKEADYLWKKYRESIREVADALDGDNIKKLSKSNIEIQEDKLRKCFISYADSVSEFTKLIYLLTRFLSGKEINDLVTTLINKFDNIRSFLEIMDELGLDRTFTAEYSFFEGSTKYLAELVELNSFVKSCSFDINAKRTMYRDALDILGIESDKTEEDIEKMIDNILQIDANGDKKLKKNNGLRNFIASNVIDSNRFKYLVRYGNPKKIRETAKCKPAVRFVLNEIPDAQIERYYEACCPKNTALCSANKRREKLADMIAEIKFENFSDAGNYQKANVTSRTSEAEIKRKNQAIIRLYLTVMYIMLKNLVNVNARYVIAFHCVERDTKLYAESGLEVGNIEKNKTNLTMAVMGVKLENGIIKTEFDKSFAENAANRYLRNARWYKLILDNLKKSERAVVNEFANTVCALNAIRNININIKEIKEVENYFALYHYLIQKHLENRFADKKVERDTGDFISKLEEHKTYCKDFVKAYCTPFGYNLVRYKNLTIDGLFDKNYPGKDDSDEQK

B1: target 3 U2G,A5U (mixed)
RNA 1: CACCCGUGCAAAAUUGCAGGGGUCUAAAACGACCUGAAUAUUUCAGAUCAAA
RNA 2: GGGAAUGGAUCCACAUCUACGAAUUCGUUUUUGAUCUGAAAUAUUCUGGGCUGCAGAUCGGAAGAGCACACGU
B2: target 3 insU 3' of 4,insA 3' of 3 (mixed)
RNA 1: CACCCGUGCAAAAUUGCAGGGGUCUAAAACGACCUGAAUAUUUCAGAUCAAA
RNA 2: GGGAAUGGAUCCACAUCUACGAAUUCGUUUUUGAUCUGAAAUAUUCAGUGAUCUGCAGAUCGGAAGAGCACACGU
B3: target 3 insG 3' of 2 (mixed)
RNA 1: CACCCGUGCAAAAUUGCAGGGGUCUAAAACGACCUGAAUAUUUCAGAUCAAA
RNA 2: GGGAAUGGAUCCACAUCUACGAAUUCGUUUUUGAUCUGAAAUAUUCAGGUGCUGCAGAUCGGAAGAGCACACGU
B4: target 3 A5U,U7A (mixed)
RNA 1: CACCCGUGCAAAAUUGCAGGGGUCUAAAACGACCUGAAUAUUUCAGAUCAAA
RNA 2: GGGAAUGGAUCCACAUCUACGAAUUCGUUUUUGAUCUGAAAUAUACUGGUCUGCAGAUCGGAAGAGCACACGU
B5: target 3 insU 3' of 22,insG 3' of 8 (mixed)
RNA 1: CACCCGUGCAAAAUUGCAGGGGUCUAAAACGACCUGAAUAUUUCAGAUCAAA
RNA 2: GGGAAUGGAUCCACAUCUACGAAUUCGUUUUUUGAUCUGAAAUAUGUCAGGUCUGCAGAUCGGAAGAGCACACGU
B6: target 3 A11G (mixed)
RNA 1: CACCCGUGCAAAAUUGCAGGGGUCUAAAACGACCUGAAUAUUUCAGAUCAAA
RNA 2: GGGAAUGGAUCCACAUCUACGAAUUCGUUUUUGAUCUGAAGUAUUCAGGUCUGCAGAUCGGAAGAGCACACGU
B7: target 3 U7A,A9G (mixed)
RNA 1: CACCCGUGCAAAAUUGCAGGGGUCUAAAACGACCUGAAUAUUUCAGAUCAAA
RNA 2: GGGAAUGGAUCCACAUCUACGAAUUCGUUUUUGAUCUGAAAUGUACAGGUCUGCAGAUCGGAAGAGCACACGU
B8: target 3 insU 3' of 3,insG 3' of 2 (mixed)
RNA 1: CACCCGUGCAAAAUUGCAGGGGUCUAAAACGACCUGAAUAUUUCAGAUCAAA
RNA 2: GGGAAUGGAUCCACAUCUACGAAUUCGUUUUUGAUCUGAAAUAUUCAGGUUGCUGCAGAUCGGAAGAGCACACGU
B9: target 3 insC 3' of 8,insU 3' of 4 (mixed)
RNA 1: CACCCGUGCAAAAUUGCAGGGGUCUAAAACGACCUGAAUAUUUCAGAUCAAA
RNA 2: GGGAAUGGAUCCACAUCUACGAAUUCGUUUUUGAUCUGAAAUAUCUCAGUGUCUGCAGAUCGGAAGAGCACACGU
B10: target 3 complement block 6-8 (mixed)
RNA 1: CACCCGUGCAAAAUUGCAGGGGUCUAAAACGACCUGAAUAUUUCAGAUCAAA
RNA 2: GGGAAUGGAUCCACAUCUACGAAUUCGUUUUUGAUCUGAAAUAAAGAGGUCUGCAGAUCGGAAGAGCACACGU
B11: target 3 insU 3' of 22,insC 3' of 8 (mixed)
RNA 1: CACCCGUGCAAAAUUGCAGGGGUCUAAAACGACCUGAAUAUUUCAGAUCAAA
RNA 2: GGGAAUGGAUCCACAUCUACGAAUUCGUUUUUUGAUCUGAAAUAUCUCAGGUCUGCAGAUCGGAAGAGCACACGU
B12: target 3 insA 3' of 21,insC 3' of 20 (mixed)
RNA 1: CACCCGUGCAAAAUUGCAGGGGUCUAAAACGACCUGAAUAUUUCAGAUCAAA
RNA 2: GGGAAUGGAUCCACAUCUACGAAUUCGUUUUAUCGAUCUGAAAUAUUCAGGUCUGCAGAUCGGAAGAGCACACGU
B13: target 3 insU 3' of 22,insU 3' of 11 (mixed)
RNA 1: CACCCGUGCAAAAUUGCAGGGGUCUAAAACGACCUGAAUAUUUCAGAUCAAA
RNA 2: GGGAAUGGAUCCACAUCUACGAAUUCGUUUUUUGAUCUGAAAUUAUUCAGGUCUGCAGAUCGGAAGAGCACACGU
B14: target 3 G4U,U22A (mixed)
RNA 1: CACCCGUGCAAAAUUGCAGGGGUCUAAAACGACCUGAAUAUUUCAGAUCAAA
RNA 2: GGGAAUGGAUCCACAUCUACGAAUUCGUUAUUGAUCUGAAAUAUUCAUGUCUGCAGAUCGGAAGAGCACACGU
B15: target 3 A18G,U20A (mixed)
RNA 1: CACCCGUGCAAAAUUGCAGGGGUCUAAAACGACCUGAAUAUUUCAGAUCAAA
RNA 2: GGGAAUGGAUCCACAUCUACGAAUUCGUUUUAGGUCUGAAAUAUUCAGGUCUGCAGAUCGGAAGAGCACACGU
B16: target 3 insC 3' of 7,insC 3' of 2 (mixed)
RNA 1: CACCCGUGCAAAAUUGCAGGGGUCUAAAACGACCUGAAUAUUUCAGAUCAAA
RNA 2: GGGAAUGGAUCCACAUCUACGAAUUCGUUUUUGAUCUGAAAUAUUCCAGGUCCUGCAGAUCGGAAGAGCACACGU
B17: target 3 complement block 3-6 (mixed)
RNA 1: CACCCGUGCAAAAUUGCAGGGGUCUAAAACGACCUGAAUAUUUCAGAUCAAA
RNA 2: GGGAAUGGAUCCACAUCUACGAAUUCGUUUUUGAUCUGAAAUAUUGUCCUCUGCAGAUCGGAAGAGCACACGU
B18: target 3 insU 3' of 6,insA 3' of 4 (mixed)
RNA 1: CACCCGUGCAAAAUUGCAGGGGUCUAAAACGACCUGAAUAUUUCAGAUCAAA
RNA 2: GGGAAUGGAUCCACAUCUACGAAUUCGUUUUUGAUCUGAAAUAUUCUAGAGUCUGCAGAUCGGAAGAGCACACGU
B19: target 3 C6A,U8A (mixed)
RNA 1: CACCCGUGCAAAAUUGCAGGGGUCUAAAACGACCUGAAUAUUUCAGAUCAAA
RNA 2: GGGAAUGGAUCCACAUCUACGAAUUCGUUUUUGAUCUGAAAUAAUAAGGUCUGCAGAUCGGAAGAGCACACGU
B20: target 3 insA 3' of 7,insA 3' of 6 (mixed)
RNA 1: CACCCGUGCAAAAUUGCAGGGGUCUAAAACGACCUGAAUAUUUCAGAUCAAA
RNA 2: GGGAAUGGAUCCACAUCUACGAAUUCGUUUUUGAUCUGAAAUAUUACAAGGUCUGCAGAUCGGAAGAGCACACGU
B21: target 3 A5G,U22A (mixed)
RNA 1: CACCCGUGCAAAAUUGCAGGGGUCUAAAACGACCUGAAUAUUUCAGAUCAAA
RNA 2: GGGAAUGGAUCCACAUCUACGAAUUCGUUAUUGAUCUGAAAUAUUCGGGUCUGCAGAUCGGAAGAGCACACGU
B22: target 3 insU 3' of 4,insA 3' of 2 (mixed)
RNA 1: CACCCGUGCAAAAUUGCAGGGGUCUAAAACGACCUGAAUAUUUCAGAUCAAA
RNA 2: GGGAAUGGAUCCACAUCUACGAAUUCGUUUUUGAUCUGAAAUAUUCAGUGUACUGCAGAUCGGAAGAGCACACGU
B23: target 3 insA 3' of 16,insA 3' of 2 (mixed)
RNA 1: CACCCGUGCAAAAUUGCAGGGGUCUAAAACGACCUGAAUAUUUCAGAUCAAA
RNA 2: GGGAAUGGAUCCACAUCUACGAAUUCGUUUUUGAUCAUGAAAUAUUCAGGUACUGCAGAUCGGAAGAGCACACGU
B24: target 3 C1G,C6G (mixed)
RNA 1: CACCCGUGCAAAAUUGCAGGGGUCUAAAACGACCUGAAUAUUUCAGAUCAAA
RNA 2: GGGAAUGGAUCCACAUCUACGAAUUCGUUUUUGAUCUGAAAUAUUGAGGUGUGCAGAUCGGAAGAGCACACGU
B25: target 3 insA 3' of 3,insU 3' of 3 (mixed)
RNA 1: CACCCGUGCAAAAUUGCAGGGGUCUAAAACGACCUGAAUAUUUCAGAUCAAA
RNA 2: GGGAAUGGAUCCACAUCUACGAAUUCGUUUUUGAUCUGAAAUAUUCAGGAUUCUGCAGAUCGGAAGAGCACACGU
B26: target 1 U10C,U19C (mixed)
RNA 1: CACCCGUGCAAAAAUGCAGGGGUCUAAAACUGAGCGGAUAACCUCUCUAUGG
RNA 2: GGGAAUGGAUCCACAUCUACGAAUUCGUACCACAGAGAGGUCAUCCGCUCACCGAGAUCGGAAGAGCACACGU
B27: target 1 insU 3' of 21,insA 3' of 2 (mixed)
RNA 1: CACCCGUGCAAAAAUGCAGGGGUCUAAAACUGAGCGGAUAACCUCUCUAUGG
RNA 2: GGGAAUGGAUCCACAUCUACGAAUUCGUACCUAUAGAGAGGUUAUCCGCUCAACCGAGAUCGGAAGAGCACACGU

This data set addresses T1, EsCas13d, nuclease-dead. The data set is described as follows: crRNA (strand 1, pre-loaded); Mg2+; 40 mM Tris-HCl pH 7.5, 150 mM NaCl, 6 mM MgCl2, 1 mM DTT, 0.1% Tween-20, 0.2 mg/ml BSA; 25 C; 10 min per concentration, then washed. Particulars: tags: His6-TwinStrep-SUMO cleaved; N-terminal SNAP kept (SNAP-Surface 488); label: 3' end held by stalled T7 RNA polymerase.
As for B1, the Kd was determined as 9.2 ± 1.2 nM.

Molecule B2 showed a Kd of 17.8 ± 2.45 nM.

B3 yielded a Kd of 37.1 ± 3.7 nM.

B4 registered a Kd of 62.4 ± 5.4 nM.

Take B5: binding was characterised by a dissociation constant (Kd) of 50.5 ± 11.5 nM.

B6 returned a Kd of 57 ± 11.5 nM.

B7 showed a Kd of 97 ± 17.5 nM.

Take B8: the Kd was 27 ± 4.5 nM.

Regarding B9, the dissociation constant (Kd) is 105 ± 42 nM.

B10: binding was characterised by a dissociation constant (Kd) of 102 ± 23.5 nM.

Molecule B11 gave a Kd of 106 ± 32 nM.

In turn, B12 yielded a Kd of 73.5 ± 20.5 nM.

Regarding B13, binding was characterised by a dissociation constant (Kd) of 62 ± 19.5 nM.

In turn, B14 yielded a Kd of 4.45 ± 0.435 nM.

In turn, B15 showed a Kd of 83.5 ± 36.5 nM.

In turn, B16 registered a dissociation constant Kd of approximately 120 nM.

B17 had a Kd of 57 ± 6 nM.

On to B18, for which the Kd was determined as 19.4 ± 3.6 nM.

B19 showed a Kd of 59 ± 8.5 nM.

Molecule B20 came in with a dissociation constant Kd of 23.7 ± 2.65 nM.

The molecule B21 returned an equilibrium dissociation constant (Kd) of 21.6 ± 2.85 nM.

With B22, the affinity, expressed as Kd, was 4.65 ± 0.75 nM.

As to B23, the affinity, expressed as Kd, was 84.5 ± 25.5 nM.

B24 registered a Kd of 18.7 ± 3.15 nM.

As to B25, binding was put at a Kd of 27.9 ± 2.9 nM.

Regarding B26, the Kd was 70 ± 12 nM.

As for B27, the equilibrium dissociation constant (Kd) was determined as 26.8 ± 2.8 nM.
